Target: Human type I collagen, P02452
Sequence (P02452 162-1218, chain 1 of 2): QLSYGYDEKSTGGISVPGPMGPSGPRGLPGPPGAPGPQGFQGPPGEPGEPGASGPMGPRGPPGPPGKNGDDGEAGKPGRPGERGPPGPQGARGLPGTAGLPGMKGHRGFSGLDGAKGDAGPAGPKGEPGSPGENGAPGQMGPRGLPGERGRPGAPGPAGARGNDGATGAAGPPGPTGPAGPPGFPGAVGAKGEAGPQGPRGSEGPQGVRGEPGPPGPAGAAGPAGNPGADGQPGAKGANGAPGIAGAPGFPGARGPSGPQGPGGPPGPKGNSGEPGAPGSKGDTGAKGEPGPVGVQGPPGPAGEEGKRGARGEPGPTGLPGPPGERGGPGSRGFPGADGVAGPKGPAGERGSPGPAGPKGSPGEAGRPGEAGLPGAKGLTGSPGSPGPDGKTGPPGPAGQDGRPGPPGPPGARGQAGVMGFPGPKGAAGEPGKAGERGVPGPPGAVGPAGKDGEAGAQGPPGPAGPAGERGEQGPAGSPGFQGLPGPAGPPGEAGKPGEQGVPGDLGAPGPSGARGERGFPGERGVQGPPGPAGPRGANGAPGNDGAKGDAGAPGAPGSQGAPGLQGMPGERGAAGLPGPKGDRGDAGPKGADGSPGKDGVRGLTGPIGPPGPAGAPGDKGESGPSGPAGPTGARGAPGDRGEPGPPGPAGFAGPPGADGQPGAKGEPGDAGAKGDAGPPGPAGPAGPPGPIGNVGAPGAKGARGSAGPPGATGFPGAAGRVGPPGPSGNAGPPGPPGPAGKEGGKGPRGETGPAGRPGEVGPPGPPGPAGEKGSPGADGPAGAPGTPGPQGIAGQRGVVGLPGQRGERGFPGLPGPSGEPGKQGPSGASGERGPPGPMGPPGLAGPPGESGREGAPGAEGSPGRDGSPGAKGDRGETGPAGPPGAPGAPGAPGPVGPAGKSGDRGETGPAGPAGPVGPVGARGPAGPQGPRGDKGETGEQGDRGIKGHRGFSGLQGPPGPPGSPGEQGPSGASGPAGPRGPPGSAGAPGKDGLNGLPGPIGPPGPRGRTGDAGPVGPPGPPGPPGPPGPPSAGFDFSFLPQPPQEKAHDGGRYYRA
Sequence (chain, as listed by the source, chain 2 of 2): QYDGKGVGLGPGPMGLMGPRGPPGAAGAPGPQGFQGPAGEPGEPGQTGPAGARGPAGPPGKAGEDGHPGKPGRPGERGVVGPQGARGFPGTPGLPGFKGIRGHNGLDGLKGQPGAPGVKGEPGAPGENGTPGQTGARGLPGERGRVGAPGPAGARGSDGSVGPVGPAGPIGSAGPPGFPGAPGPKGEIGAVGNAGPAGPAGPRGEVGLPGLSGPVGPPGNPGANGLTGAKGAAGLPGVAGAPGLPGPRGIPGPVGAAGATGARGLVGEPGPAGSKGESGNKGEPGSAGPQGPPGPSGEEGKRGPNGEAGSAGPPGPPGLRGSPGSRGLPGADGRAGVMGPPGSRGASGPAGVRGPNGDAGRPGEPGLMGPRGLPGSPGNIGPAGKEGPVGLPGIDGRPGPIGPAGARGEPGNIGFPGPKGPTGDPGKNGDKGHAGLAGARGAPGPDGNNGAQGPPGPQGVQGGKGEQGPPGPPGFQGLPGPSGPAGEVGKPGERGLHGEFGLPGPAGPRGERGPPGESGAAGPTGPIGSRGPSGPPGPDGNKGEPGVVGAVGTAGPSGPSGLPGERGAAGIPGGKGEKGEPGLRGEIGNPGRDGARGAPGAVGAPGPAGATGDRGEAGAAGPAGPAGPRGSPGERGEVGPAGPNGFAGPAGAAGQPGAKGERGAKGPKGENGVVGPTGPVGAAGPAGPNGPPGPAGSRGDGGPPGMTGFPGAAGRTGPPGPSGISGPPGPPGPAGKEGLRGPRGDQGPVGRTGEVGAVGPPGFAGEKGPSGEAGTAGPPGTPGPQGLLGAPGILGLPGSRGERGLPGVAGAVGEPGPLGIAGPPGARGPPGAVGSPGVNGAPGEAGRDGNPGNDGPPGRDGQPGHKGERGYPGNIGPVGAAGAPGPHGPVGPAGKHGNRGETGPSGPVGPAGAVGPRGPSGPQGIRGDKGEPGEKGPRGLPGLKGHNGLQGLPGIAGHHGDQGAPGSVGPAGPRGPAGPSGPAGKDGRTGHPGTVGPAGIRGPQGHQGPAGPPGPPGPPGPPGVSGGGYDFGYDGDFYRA

B1: MMP1 (matrix metalloproteinase 1) (protein)
chain: FVLTEGNPRWEQTHLTYRIENYTPDLPRADVDHAIEKAFQLWSNVTPLTFTKVSEGQADIMISFVRGDHRDNSPFDGPGGNLAHAFQPGPGIGGDAHFDEDERWTNNFREYNLHRVAAHELGHSLGLSHSTDIGALMYPSYTFSGDVQLAQDDIDGIQAIYGRSQNPVQPIGPQTPKACDSKLTFDAITTIRGEVMFFKDRFYMRTNPFYPEVELNFISVFWPQLPNGLEAAYEFADRDEVRFFKGNKYWAVQGQNVLHGYPKDIYSSFGFPRTVKHIDAALSEENTGKTYFFVANKYWRYDEYKRSMDPGYPKMIAHDFPGIGHKVDAVFMKDGFFYFFHGTRQYKFDPKTKRILTLQKANSWFNCRKN
collagen fiber, fibril and network structure on a substrate, by atomic force microscopy: MMP-treated samples, however, showed a substantial amount of disorganized collagen and little remaining fiber/fibril formation | collagen fiber, fibril and network structure on a substrate, by scanning electron microscopy: MMP treatment of the substrate resulted in a readily observable amount of disruption of the collagen fibers, fibrils and network

— patent US20240016900
